Results published in article doi:10.1101/487769.
Values joined by “and” are separate entries in the source; they are usually repeats but may differ in a detail not shown here. Equal values may be shown once.

Molecular target: Hfq-FLAG (Yersinia pestis Hfq with C-terminal 3 x Flag tag) (Yersinia pestis)
Test: native gel or EMSA

Hfq-FLAG (Yersinia pestis Hfq with C-terminal 3 x Flag tag) (natural protein)
stoichiometry N: 3 and 6
